Laboratory results published in patent US20240409645A1 (DUALYX, published 2024).

T1: human IL-2 receptor (IL-2Rα/IL-2Rβ/γc) (human, UniProt P01589 22-272; P14784 27-551; P31785 23-369)
T1 sequence 1: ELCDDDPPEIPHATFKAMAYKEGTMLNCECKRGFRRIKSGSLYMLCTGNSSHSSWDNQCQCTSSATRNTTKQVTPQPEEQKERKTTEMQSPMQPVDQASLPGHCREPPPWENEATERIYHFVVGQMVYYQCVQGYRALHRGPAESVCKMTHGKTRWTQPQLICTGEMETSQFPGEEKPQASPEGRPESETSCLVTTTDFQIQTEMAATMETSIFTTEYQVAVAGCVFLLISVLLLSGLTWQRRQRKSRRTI
T1 sequence 2: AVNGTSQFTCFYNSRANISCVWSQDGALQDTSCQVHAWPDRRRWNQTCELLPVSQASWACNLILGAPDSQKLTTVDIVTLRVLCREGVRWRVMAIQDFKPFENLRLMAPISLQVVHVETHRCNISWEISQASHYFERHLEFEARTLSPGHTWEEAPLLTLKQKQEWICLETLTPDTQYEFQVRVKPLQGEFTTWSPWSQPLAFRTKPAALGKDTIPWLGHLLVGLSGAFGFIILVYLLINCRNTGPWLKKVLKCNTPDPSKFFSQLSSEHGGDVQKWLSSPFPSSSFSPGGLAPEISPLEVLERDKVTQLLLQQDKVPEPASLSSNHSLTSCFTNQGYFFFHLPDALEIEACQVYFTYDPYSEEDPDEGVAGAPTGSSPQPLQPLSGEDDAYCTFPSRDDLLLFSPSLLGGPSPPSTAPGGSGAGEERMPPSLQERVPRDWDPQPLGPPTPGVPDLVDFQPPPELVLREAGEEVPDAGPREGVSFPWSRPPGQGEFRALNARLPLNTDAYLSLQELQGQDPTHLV
T1 sequence 3: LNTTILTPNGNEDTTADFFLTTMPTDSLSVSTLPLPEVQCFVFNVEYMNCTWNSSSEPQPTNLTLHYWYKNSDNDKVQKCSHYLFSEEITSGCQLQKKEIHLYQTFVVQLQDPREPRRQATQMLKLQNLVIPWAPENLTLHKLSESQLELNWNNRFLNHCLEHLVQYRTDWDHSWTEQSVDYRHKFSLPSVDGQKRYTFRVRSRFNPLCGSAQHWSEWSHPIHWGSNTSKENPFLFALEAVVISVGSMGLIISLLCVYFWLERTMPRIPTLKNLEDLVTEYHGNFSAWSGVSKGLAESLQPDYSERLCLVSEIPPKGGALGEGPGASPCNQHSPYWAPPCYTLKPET


Target: T1, human IL-2 receptor (IL-2Rα/IL-2Rβ/γc)
Assay: cell-based or functional assay

EC50 (nM) pSTAT5, NK, human PBMCs [nM]	EC50 (nM) pSTAT5, Treg, human PBMCs	Fold Max signal (% pSTAT5+) Treg/NK [fold]	Max signal (% pSTAT5+), NK [% pSTAT5+]	Max signal (% pSTAT5+), Treg [% pSTAT5+]	fold EC50 NK/Treg [fold]	Binder
0.057	0.488 pM	7	13	84	117	DC00053 (other) chain 1: QVQLVESGGGLVQPGGSLRLSCATSGFTFRNNFMSWVRQAPGKGLEWVSTISYGGESTTYAESVKGRFTISRDNAKNTLYLQMNNLKPEDTAVYYCAKATSYDSIRSGSRGQGTQVTVSSGGGGSGGGGSGGGGSEVQLVESGGGLVQTGGSLRLSCAASGGTFSRDAMAWFRQVPGKEREFVALISWSGATTNYADSVKGRFAISRDNGKNTVYLQMNRLKPADTAIYYCAADRRPMGSRSYFEPTEYDDWGQGTQVTVSSGGGGSGGGGSGGGGSDKTHTCPPCPAPEAAGGPSVFLFPPKPKDTLMISRTPEVTCVVVDVSHEDPEVKFNWYVDGVEVHNAKTKPREEQYNSTYRVVSVLTVLHQDWLNGKEYKCKVSNKALGAPIEKTISKAKGQPREPQVYTLPPSRDELTKNQVSLTCLVKGFYPSDIAVEWESNGQPENNYKTTPPVLDSDGSFLLYSKLTVDKSRWQQGNVFSCSVMHEALHNHYTQKSLSLSPGK chain 2: EVQLVESGGGLVQTGGSLRLSCAASGGTFSRDAMAWFRQVPGKEREFVALISWSGATTNYADSVKGRFAISRDNGKNTVYLQMNRLKPADTAIYYCAADRRPMGSRSYFEPTEYDDWGQGTQVTVSSGGGGSGGGGSGGGGSQVQLVESGGGLVQPGGSLRLSCATSGFTFRNNFMSWVRQAPGKGLEWVSTISYGGESTTYAESVKGRFTISRDNAKNTLYLQMNNLKPEDTAVYYCAKATSYDSIRSGSRGQGTQVTVSSGGGGSGGGGSGGGGSQVQLVESGGGLVQAGGSLTLSCAAPGRTFGTDVVGWFRQAPGKEREFVASISRSGDGIYYDDSVKGRFTISRNNAWNTVNLQMNSLKVEDTAVYYCAAGDGWSTYDYWGQGTQVTVSSGGGGSGGGGSGGGGSDKTHTCPPCPAPEAAGGPSVFLFPPKPKDTLMISRTPEVTCVVVDVSHEDPEVKFNWYVDGVEVHNAKTKPREEQYNSTYRVVSVLTVLHQDWLNGKEYKCKVSNKALGAPIEKTISKAKGQPREPQVYTLPPSRDELTKNQVSLTCLVKGFYPSDIAVEWESNGQPENNYKTTPPVLDSDGSFFLYSRLTVDKSRWQQGNVFSCSVMHEALHNHYTQKSLSLSPGK
0.548	0.00208 nM	5	19	89	263	DC00057 (other) chain 1: QVQLVESGGGLVQPGGSLRLSCATSGFTFRNNFMSWVRQAPGKGLEWVSTISYGGESTTYAESVKGRFTISRDNAKNTLYLQMNNLKPEDTAVYYCAKATSYDSIRSGSRGQGTQVTVSSGGGGSGGGGSGGGGSEVQLVESGGGLVQTGGSLRLSCAASGGTFSRDAMAWFRQVPGKEREFVALISWSGATTNYADSVKGRFAISRDNGKNTVYLQMNRLKPADTAIYYCAADRRPMGSRSYFEPTEYDDWGQGTQVTVSSGGGGSGGGGSGGGGSDKTHTCPPCPAPEAAGGPSVFLFPPKPKDTLMISRTPEVTCVVVDVSHEDPEVKFNWYVDGVEVHNAKTKPREEQYNSTYRVVSVLTVLHQDWLNGKEYKCKVSNKALGAPIEKTISKAKGQPREPQVYTLPPSRDELTKNQVSLTCLVKGFYPSDIAVEWESNGQPENNYKTTPPVLDSDGSFLLYSKLTVDKSRWQQGNVFSCSVMHEALHNHYTQKSLSLSPGK chain 2: QVQLVESGGGLVQPGGSLRLSCATSGFTFRNNFMSWVRQAPGKGLEWVSTISYGGESTTYAESVKGRFTISRDNAKNTLYLQMNNLKPEDTAVYYCAKATSYDSIRSGSRGQGTQVTVSSGGGGSGGGGSGGGGSEVQLVESGGGLVQTGGSLRLSCAASGGTFSRDAMAWFRQVPGKEREFVALISWSGATTNYADSVKGRFAISRDNGKNTVYLQMNRLKPADTAIYYCAADRRPMGSRSYFEPTEYDDWGQGTQVTVSSGGGGSGGGGSGGGGSQVQLVESGGGLVQAGGSLTLSCAAPGRTFGTDVVGWFRQAPGKEREFVASISRSGDGIYYDDSVKGRFTISRNNAWNTVNLQMNSLKVEDTAVYYCAAGDGWSTYDYWGQGTQVTVSSGGGGSGGGGSGGGGSDKTHTCPPCPAPEAAGGPSVFLFPPKPKDTLMISRTPEVTCVVVDVSHEDPEVKFNWYVDGVEVHNAKTKPREEQYNSTYRVVSVLTVLHQDWLNGKEYKCKVSNKALGAPIEKTISKAKGQPREPQVYTLPPSRDELTKNQVSLTCLVKGFYPSDIAVEWESNGQPENNYKTTPPVLDSDGSFFLYSRLTVDKSRWQQGNVFSCSVMHEALHNHYTQKSLSLSPGK
0.889	< 0.1 pM	3	34	97	> 8890	DC00055 (other) chain 1: QVQLVESGGGLVQPGGSLRLSCATSGFTFRNNFMSWVRQAPGKGLEWVSTISYGGESTTYAESVKGRFTISRDNAKNTLYLQMNNLKPEDTAVYYCAKATSYDSIRSGSRGQGTQVTVSSGGGGSGGGGSGGGGSEVQLVESGGGLVQTGGSLRLSCAASGGTFSRDAMAWFRQVPGKEREFVALISWSGATTNYADSVKGRFAISRDNGKNTVYLQMNRLKPADTAIYYCAADRRPMGSRSYFEPTEYDDWGQGTQVTVSSGGGGSGGGGSGGGGSDKTHTCPPCPAPEAAGGPSVFLFPPKPKDTLMISRTPEVTCVVVDVSHEDPEVKFNWYVDGVEVHNAKTKPREEQYNSTYRVVSVLTVLHQDWLNGKEYKCKVSNKALGAPIEKTISKAKGQPREPQVYTLPPSRDELTKNQVSLTCLVKGFYPSDIAVEWESNGQPENNYKTTPPVLDSDGSFLLYSKLTVDKSRWQQGNVFSCSVMHEALHNHYTQKSLSLSPGK chain 2: QVQLVESGGGLVQPGGSLRLSCATSGFTFRNNFMSWVRQAPGKGLEWVSTISYGGESTTYAESVKGRFTISRDNAKNTLYLQMNNLKPEDTAVYYCAKATSYDSIRSGSRGQGTQVTVSSGGGGSGGGGSGGGGSQVQLVESGGGLVQAGGSLTLSCAAPGRTFGTDVVGWFRQAPGKEREFVASISRSGDGIYYDDSVKGRFTISRNNAWNTVNLQMNSLKVEDTAVYYCAAGDGWSTYDYWGQGTQVTVSSGGGGSGGGGSGGGGSEVQLVESGGGLVQTGGSLRLSCAASGGTFSRDAMAWFRQVPGKEREFVALISWSGATTNYADSVKGRFAISRDNGKNTVYLQMNRLKPADTAIYYCAADRRPMGSRSYFEPTEYDDWGQGTQVTVSSGGGGSGGGGSGGGGSDKTHTCPPCPAPEAAGGPSVFLFPPKPKDTLMISRTPEVTCVVVDVSHEDPEVKFNWYVDGVEVHNAKTKPREEQYNSTYRVVSVLTVLHQDWLNGKEYKCKVSNKALGAPIEKTISKAKGQPREPQVYTLPPSRDELTKNQVSLTCLVKGFYPSDIAVEWESNGQPENNYKTTPPVLDSDGSFFLYSRLTVDKSRWQQGNVFSCSVMHEALHNHYTQKSLSLSPGK
